Source: patent publication US20070111260A1

Experiments:
[1] = biological target: Human αvβ3 integrin (Chemicon, #CC1018), biotinylated (human) (UniProt P06756); test: flow cytometry, 293A cells displaying the ScFvFc, αVβ3-biotin 10 ug/ml, APC-streptavidin
[2] = biological target: Human αvβ3 integrin (Chemicon, #CC1018), biotinylated (human) (UniProt P06756); test: flow cytometry, 293A cells displaying the ScFvFc, αVβ3-biotin 1 ug/ml, APC-streptavidin
[3] = biological target: Human αvβ3 integrin (Chemicon, #CC1018), biotinylated (human) (UniProt P06756); test: flow cytometry, 293A cells displaying the ScFvFc, αVβ3-biotin 5 ug/ml, APC-streptavidin
[4] = biological target: Human αvβ3 integrin (Chemicon, #CC1018), biotinylated (human) (UniProt P06756); test: flow cytometry, 293A cells displaying the ScFvFc, αVβ3-biotin 2.5 ug/ml, APC-streptavidin
[5] = biological target: Human αvβ3 integrin (Chemicon, #CC1018), biotinylated (human) (UniProt P06756); test: flow cytometry, 293A cells displaying the ScFvFc, αVβ3-biotin 0.5 ug/ml, APC-streptavidin

Human αvβ3 integrin (Chemicon, #CC1018), biotinylated (human), sequence (P06756 31-1048 limits assumed, chain 1 of 2): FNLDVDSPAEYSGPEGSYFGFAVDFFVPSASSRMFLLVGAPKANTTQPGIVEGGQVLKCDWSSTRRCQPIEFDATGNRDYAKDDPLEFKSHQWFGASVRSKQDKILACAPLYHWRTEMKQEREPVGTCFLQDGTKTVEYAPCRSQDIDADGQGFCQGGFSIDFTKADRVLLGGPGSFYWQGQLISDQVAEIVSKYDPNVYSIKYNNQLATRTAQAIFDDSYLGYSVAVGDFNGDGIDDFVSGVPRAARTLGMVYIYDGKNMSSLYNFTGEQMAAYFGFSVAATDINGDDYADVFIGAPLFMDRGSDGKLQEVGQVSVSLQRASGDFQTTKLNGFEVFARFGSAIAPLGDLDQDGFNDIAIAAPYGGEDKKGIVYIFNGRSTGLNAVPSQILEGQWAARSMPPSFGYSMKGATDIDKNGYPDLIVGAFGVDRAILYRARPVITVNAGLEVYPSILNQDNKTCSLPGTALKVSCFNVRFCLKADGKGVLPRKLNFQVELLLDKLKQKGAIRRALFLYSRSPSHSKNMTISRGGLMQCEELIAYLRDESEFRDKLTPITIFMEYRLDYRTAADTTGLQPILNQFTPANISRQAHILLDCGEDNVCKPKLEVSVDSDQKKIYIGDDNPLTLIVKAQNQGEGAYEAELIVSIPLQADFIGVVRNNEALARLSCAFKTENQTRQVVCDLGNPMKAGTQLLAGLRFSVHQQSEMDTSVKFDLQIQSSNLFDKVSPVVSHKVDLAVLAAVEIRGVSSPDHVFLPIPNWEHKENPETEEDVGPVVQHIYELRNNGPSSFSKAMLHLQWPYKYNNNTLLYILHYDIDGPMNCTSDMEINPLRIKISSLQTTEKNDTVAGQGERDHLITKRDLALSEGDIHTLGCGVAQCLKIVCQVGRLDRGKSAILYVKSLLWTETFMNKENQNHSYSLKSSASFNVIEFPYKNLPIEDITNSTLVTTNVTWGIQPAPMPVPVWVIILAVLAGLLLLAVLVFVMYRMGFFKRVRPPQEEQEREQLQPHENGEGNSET
Human αvβ3 integrin (Chemicon, #CC1018), biotinylated (human), sequence (P05106 27-788 limits assumed, chain 2 of 2, further chain): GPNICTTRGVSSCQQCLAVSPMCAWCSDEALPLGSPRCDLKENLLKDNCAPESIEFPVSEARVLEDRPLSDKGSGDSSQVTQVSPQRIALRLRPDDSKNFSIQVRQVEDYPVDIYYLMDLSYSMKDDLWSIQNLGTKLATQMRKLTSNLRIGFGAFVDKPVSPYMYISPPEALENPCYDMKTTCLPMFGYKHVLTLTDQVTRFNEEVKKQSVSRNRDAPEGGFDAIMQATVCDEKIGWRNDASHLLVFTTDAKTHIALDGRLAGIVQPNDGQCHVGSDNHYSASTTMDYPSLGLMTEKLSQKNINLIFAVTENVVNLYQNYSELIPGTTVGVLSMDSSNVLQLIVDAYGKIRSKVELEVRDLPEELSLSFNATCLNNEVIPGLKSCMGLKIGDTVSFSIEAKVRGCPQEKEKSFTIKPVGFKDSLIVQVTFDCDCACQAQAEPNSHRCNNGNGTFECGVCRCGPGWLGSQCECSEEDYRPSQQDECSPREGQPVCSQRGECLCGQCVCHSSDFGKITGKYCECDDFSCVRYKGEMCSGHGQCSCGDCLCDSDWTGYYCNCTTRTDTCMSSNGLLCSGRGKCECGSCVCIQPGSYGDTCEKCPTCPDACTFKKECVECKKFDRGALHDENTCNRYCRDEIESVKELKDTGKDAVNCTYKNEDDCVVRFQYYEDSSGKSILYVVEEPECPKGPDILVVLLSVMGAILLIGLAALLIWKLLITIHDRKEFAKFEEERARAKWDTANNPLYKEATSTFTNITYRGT

- Percentage of positively stained cell [1]: 90%
- Percentage of positively stained cell [2]: 83%
- Percentage of positively stained cell [3]: 84%
- Percentage of positively stained cell [4]: 85%
- Percentage of positively stained cell [5]: 81%
B1: Abegrin anti-αvβ3 integrin ScFvFc, displayed on 293A cells (scFv, INN chains, looked up, V domains shown)
VH: QVQLVESGGGVVQPGRSLRLSCAASGFTFSSYDMSWVRQAPGKGLEWVAKVSSGGGSTYYLDTVQGRFTISRDNSKNTLYLQMNSLRAEDTAVYYCARHLHGSFASWGQGTTVTVSS
VL: EIVLTQSPATLSLSPGERATLSCQASQSISNFLHWYQQRPGQAPRLLIRYRSQSISGIPARFSGSGSGTDFTLTISSLEPEDFAVYYCQQSGSWPLTFGGGTKVEIK
modifications: scFv-Fc displayed on 293A cell surface
